We go through one molecule from patent US8741844B2, “Use of mutated antithrombins for treating or preventing coagulation disorders” (Universite Paris-Sud XI, priority 2007, dated 2014).

In this assay the test system is pentasaccharide bound plasma antithrombin (plasma anti-factor Xa activity). Kind of assay: Rotachrom heparin anti factor Xa assay in pentasaccharide containing human plasma (competition with plasma antithrombin for pentasaccharide binding). In kind it is biochemical. The conditions noted are these: human plasma, pre-incubation 30 min at 37° C. The procedure:
Anti factor Xa inhibitory activity of mutated antithrombins AT-R393H(SEQ ID NO: 4), AT-Pro394 (SEQ ID NO: 6), AT-ΔR393-5394 (SEQ ID NO: 18), AT-ΔR393 (SEQ ID NO: 8), AT-ΔS394 (SEQ ID NO: 10), AT-N135Q-R393H(SEQ ID NO: 14), AT-N135Q-Pro394 (SEQ ID NO: 16), AT-N135Q-ΔR393-S394 (SEQ ID NO: 24), AT-N135Q-ΔR393 (SEQ ID NO: 20), AT-N135Q-ΔS394 (SEQ ID NO: 22) is measured in pentasaccharide containing plasma. The plasma concentrations of pentasaccharides are defined on the basis on those measured in patients treated by the pentasaccharide under the conditions of a regular (curative) use of this molecule or in patients presenting an overdose of this drug, knowing that the optimal equilibrium concentration is 1.20-1.26 mg/L and the minimal equilibrium concentration is 0.46-0.62 mg/L during a curative pentasaccharide treatment (monograph, Arixtra®).
The anti factor Xa assay is performed using the Rotachrom® heparin method (Stago) adaptated for absorbance reading on a microplate reader (Dynatech MR 5000), or a STA analyser (Stago).
The procedure consists in mixing 30 μl of pentasaccharide containing plasma sample diluted four times in kinetic buffer, with 75 μl of chromogenic substrate (1 mM, provided in Rotachrom® heparin kit). After 4 min incubation, 75 μl of bovine factor Xa (24 nM, Rotachrom® heparin kit) is added to the plasma-substrate mixture. The factor Xa activity is measured a 405 nm absorbance increase, resulting from cleavage of the chromogenic substrate, using a microplate reader (Dynatech MR 5000). The rate constant (k), proportional to anti-factor Xa activity, is obtained by fitting the substrate hydrolysis curve to equation (3) or (3′).
Firstly, the assay is calibrated in citrated (0.105 M) normal human plasma containing pentasaccharide concentrations ranging from 0 to 3 mg/L. A standard curve is generated and anti-factor Xa activity is expressed as mg of pentasaccharide per liter of plasma.
Secondly, to evaluate the anti factor Xa inhibitory activity of mutated antithrombins, the mutated antithrombin (0-0.6 g/L, preferably 0.15-0.6 g/L, final concentration, in kinetic buffer) is pre-incubated with an equal volume of pentasaccharide (0-3 mg/L, preferably 1-3 mg/L) containing plasma samples, during 30 min at 37° C.
Under these conditions, the mutated antithrombin concentration range from one to four times that of the plasma antithrombin level, which is compatible with a therapeutic use of antithrombin. Indeed, very high doses of mutated antithrombin, with a 5 fold increase in plasma antithrombin level, have already been used during clinical trials without side effects (Leitner J M, Firbas C, Mayr F B, Reiter R A, Steinlechner B, Jilma B., Recombinant human antithrombin inhibits thrombin formation and interleukin 6 release in human endotoxemia. Clin Pharmacol Ther. 2006 January; 79(1):23-34). Anti factor Xa inhibitory activity is then evaluated as previously described.
To estimate whether mutated antithrombin can be used as reversal of pentasaccharide in case of over-dosing, AT-N135Q-R393H(SEQ ID NO: 14) and AT-N135Q-Pro394 (SEQ ID NO: 16) are tested in Rotachrom® heparin assay for their ability to restore factor Xa activity. Under conditions of treatment for prevention of venous thromboembolic events, optimal pentasaccharide concentration ranges between 1.2 and 1.26 μg/mL in plasma. To mimic an over-dosing, pentasaccharide is added to human plasma pool at concentration of 3 μg/ml. Rotachrom® heparin assay is then performed by incubation of plasma over-dosed with pentasaccharide in the presence of mutated antithrombin in a ratio 1/1, 2/1, and 4/1 compared to plasma antithrombin concentration (i.e. 0.15, 0.3, 0.6 g/l). In this ex vivo assay, anti-factor Xa activity is proportional to the amount of pentasaccharide bound natural antithrombin present in tested plasma, which amount is directly proportional to pentasaccharide concentration in plasma. […]

B1: AT-ΔS394: human antithrombin with deletion of the amino acid at position 394 (protein, listed as Homo sapiens)
chain: HGSPVDICTAKPRDIPMNPMCIYRSPEKKATEDEGSEQKIPEATNRRVWELSKANSRFATTFYQHLADSKNDNDNIFLSPLSISTAFAMTKLGACNDTLQQLMEVFKFDTISEKTSDQIHFFFAKLNCRLYRKANKSSKLVSANRLFGDKSLTFNETYQDISELVYGAKLQPLDFKENAEQSRAAINKWVSNKTEGRITDVIPSEAINELTVLVLVNTIYFKGLWKSKFSPENTRKELFYKADGESCSASMMYQEGKFRYRRVAEGTQVLELPFKGDDITMVLILPKPEKSLAKVEKELTPEVLQEWLDELEEMMLVVHMPRFRIEDGFSLKEQLQDMGLVDLFSPEKSKLPGIVAEGRDDLYVSDAFHKAFLEVNEEGSEAAASTAVVIAGRLNPNRVTFKANRPFLVFIREVPLNTIIFMGRVANPCVK
With B1, the “effect on anti-Xa activity of pentasaccharide containing plasma sample” value was “significant decrease”.
